Measurements reported in the supplement of paper PMC9732359.
± gives the uncertainty stated by the source.

Experiment: protein stability index of a GFP-peptide fusion (yeast GPS) (PSI 1-4); higher = more stable; sorted into four equal gates, so the index is relative within each strain
In short: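 Peptides tiling yeast proteins in 17-residue segments were fused downstream of GFP, with Cherry expressed from the same plasmid. As a pooled library in yeast, mid-log cultures grown in leucine-free medium were sorted into four equal gates by GFP/Cherry fluorescence ratio. Gate plasmids were PCR-amplified and Illumina-sequenced, and barcodes linked reads to strains. Each peptide received a protein stability index equal to the sum of each gate's read frequency times its gate number.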

| Sequence | protein stability index (doa10∆) | protein stability index (pdr5∆) | protein stability index (san1∆) | protein stability index (ubr1∆) |
| --- | --- | --- | --- | --- |
| NELLEMVGLASGNDSMA [BRR2] | 2.59 ± 0.094 | 2.1 ± 0.072 | 3.11 ± 0.077 | 2.32 ± 0.057 |
| EIFQLFTNPSVDIQIIN [SWI1] | 2.69 ± 0.081 | 2.88 ± 0.09 | 2.55 ± 0.078 | 2.54 ± 0.064 |
| ENFSNGISLVMEIVANA [MED1] | 2.12 ± 0.067 | 2.53 ± 0.054 | 2.5 ± 0.057 | 2.51 ± 0.034 |
| QSRLFINELVLENFKSY [SMC4] | 1.75 ± 0.053 | 2.34 ± 0.049 | 1.94 ± 0.078 | 2.27 ± 0.042 |
| DHIAIDWEDEEKYEDED [DSN1] | 2.52 ± 0.15 | 2.86 ± 0.12 | 2.55 ± 0.09 | 2.12 ± 0.08 |
| LFQLLNALTVGDFDKFD [RPN9] | 3.1 ± 0.29 | 2.36 ± 0.26 | – | 1.8 ± 0.28 |
| EVVQTGAKNIEITVVKP [PRE6] | 3.24 ± 0.098 | 3.3 ± 0.093 | 3.08 ± 0.052 | 3.04 ± 0.087 |
| TTAEPKAKRAKTGSAST [TAF14] | 3.2 ± 0.077 | 3.14 ± 0.093 | 3.34 ± 0.053 | 3.29 ± 0.053 |
| EDGLGPLMAKSVKKAGA [ARP7] | – | 3.48 ± 0.27 | – | 3.27 ± 0.14 |
| QMSDKHATVVPPEEFSN [SRB7] | 2.98 ± 0.05 | 2.88 ± 0.056 | 2.71 ± 0.059 | 2.86 ± 0.047 |
| DLIHKSEAFPSLQSCSV [SMC4] | 2.53 ± 0.085 | 2.32 ± 0.061 | 2.47 ± 0.067 | 2 ± 0.041 |
| SFLEKPKFAIQDNHHIT [YMR129W/POM152] | 2.89 ± 0.074 | 2.81 ± 0.081 | 2.81 ± 0.051 | 2.76 ± 0.089 |
| LPLLYNFNPDNGFAPIS [FAS1] | 2.03 ± 0.12 | 2.63 ± 0.054 | 2.47 ± 0.093 | 2.72 ± 0.068 |
| ESDGRMFIEEPTRMVRV [SRP54] | 2.77 ± 0.082 | 2.99 ± 0.11 | 2.83 ± 0.099 | 2.73 ± 0.054 |
| RTQAGDIVSIDIEEPQL [MTW1] | 2.99 ± 0.12 | 3.26 ± 0.1 | 3.36 ± 0.061 | 3.24 ± 0.081 |
| VISSGPLAAGNFVSEKG [RPC53] | 2.81 ± 0.093 | 3.13 ± 0.11 | 3.14 ± 0.094 | 2.48 ± 0.078 |
| VMRNTYNTRKNAVTAAA [GAL11] | 1.78 ± 0.045 | 1.94 ± 0.051 | 2.11 ± 0.07 | 1.97 ± 0.036 |
| EGIEKMGVRTFSQKEMA [FAS2] | 2.96 ± 0.16 | 2.73 ± 0.24 | 2.88 ± 0.071 | 2.89 ± 0.061 |
| LNELYQTQQDLPKVRYN [NSL1] | 3.1 ± 0.042 | 3.12 ± 0.052 | 2.96 ± 0.039 | 3.03 ± 0.038 |
| VTSSFFYRGNYTDFENT [FAS1] | 2.05 ± 0.058 | 2.4 ± 0.049 | 2.43 ± 0.079 | 2.57 ± 0.056 |
| TIGGGLFGNKPTTTTGG [YGR119C/NUP57] | 3 ± 0.094 | 3.25 ± 0.21 | 3.56 ± 0.15 | – |
| RRTYNTLEDKFLLLAVN [ISW2] | 1.34 ± 0.084 | 1.67 ± 0.076 | 1.18 ± 0.19 | 1.28 ± 0.071 |
| ATVPSGRPETYIWRYLP [RPO31] | 2.27 ± 0.12 | 1.81 ± 0.092 | 1.16 ± 0.16 | 1.49 ± 0.11 |
| KIAYRGVKDCQEGLITT [SSN2] | 2.08 ± 0.23 | – | 2.91 ± 0.22 | 2.7 ± 0.22 |
| KKMMNTSDSESTLYKYL [SWI3] | 2.94 ± 0.079 | 2.87 ± 0.075 | 2.79 ± 0.083 | 2.75 ± 0.05 |

| Sequence | protein stability index (doa10∆) | protein stability index (pdr5∆) | protein stability index (san1∆) | protein stability index (ubr1∆) |
| --- | --- | --- | --- | --- |
| NANDETTAVEDEDDDLD [RPB4] | 3.47 ± 0.1 | 3.13 ± 0.1 | 3.25 ± 0.093 | 3.25 ± 0.092 |
| ITSLYALIRRDFTLIPR [CDC53] | 2.95 ± 0.08 | 1.28 ± 0.071 | 1.18 ± 0.15 | 1.41 ± 0.031 |
| ETNAKPFSFSSATSTTE [YLR335W/NUP2] | 2.18 ± 0.056 | 2.4 ± 0.053 | 2.35 ± 0.053 | 2.26 ± 0.035 |
| DVLKSQANTEPENITKR [MCD1] | 3.06 ± 0.1 | 3.02 ± 0.083 | 2.98 ± 0.057 | 3.09 ± 0.046 |
| LVAAFIASLERELILAK [YCG1] | 1.79 ± 0.065 | 2.21 ± 0.092 | 1.93 ± 0.081 | 1.48 ± 0.053 |
| NVVEIWVFSYLRWFELK [SIR3] | 1.31 ± 0.088 | 1.38 ± 0.066 | 2.17 ± 0.16 | 2.21 ± 0.063 |
| PLSRINENENFGYDIPL [YML103C/NUP188] | 3.02 ± 0.12 | 3.14 ± 0.095 | 3.15 ± 0.064 | 3.08 ± 0.077 |
| RQNRNQEIFDANVQRLK [RPL13A] | 3.15 ± 0.078 | 3.19 ± 0.085 | 3.19 ± 0.055 | 3.4 ± 0.055 |
| RDEMSKAELPQWYTLQS [MED8] | 2.92 ± 0.05 | 3.12 ± 0.043 | 2.87 ± 0.038 | 3.01 ± 0.043 |
| DRKIQGWLGALTMANLP [ARP7] | 2.8 ± 0.066 | 3 ± 0.063 | 2.65 ± 0.069 | 2.81 ± 0.045 |
| EAPAGNIDTITDAMTES [MCD1] | 2.8 ± 0.079 | 3.04 ± 0.052 | 2.96 ± 0.072 | 3.16 ± 0.057 |
| KSKREEEAKSVLPAATK [ARP9] | 1.1 ± 0.092 | 1.37 ± 0.067 | 1.29 ± 0.11 | 1.21 ± 0.054 |
| MVNIGLHNLNEYQIVYY [RGR1] | 1.65 ± 0.14 | 2.56 ± 0.1 | 2.11 ± 0.11 | 1.43 ± 0.27 |
| LSEDVNLETLVTTKDDL [RPT2] | 3.01 ± 0.13 | 2.87 ± 0.17 | 2.57 ± 0.15 | 2.89 ± 0.096 |
| NFNKFFKIWHGEINKIC [PCI8] | 1.24 ± 0.049 | 1.13 ± 0.046 | 1.15 ± 0.079 | 1.14 ± 0.059 |
| IVDKYIGESARIIREMF [RPT4] | 2.5 ± 0.14 | 2.6 ± 0.088 | 2.48 ± 0.11 | 2.44 ± 0.079 |
| EPTYRLVRYGLAEKVEK [RPS24A] | 3.48 ± 0.19 | 3.42 ± 0.2 | – | 3.12 ± 0.19 |
| IGTNDLFQVESAPKISS [SIR4] | 2.42 ± 0.049 | 2.9 ± 0.047 | 2.63 ± 0.047 | 2.43 ± 0.035 |
| PSIPLVIIRRLKTRDWI [POP1] | 2.72 ± 0.1 | 1.69 ± 0.073 | 2.86 ± 0.12 | 2.53 ± 0.081 |
| WGTLQSVSPQMNAILTD [SMD1] | 2.83 ± 0.11 | 2.66 ± 0.1 | 2.75 ± 0.057 | 2.91 ± 0.074 |
| IGIDEGSDEAYVKDARK [RPC40] | 3.48 ± 0.074 | 3.38 ± 0.076 | 3.19 ± 0.051 | 3.5 ± 0.054 |
| GFYQIKKIVDSKKLNLK [YMR129W/POM152] | 3.11 ± 0.12 | 2.98 ± 0.092 | 2.41 ± 0.24 | 2.62 ± 0.11 |
| QKVNAVDSTFQKVSENF [SMC3] | 3.29 ± 0.091 | 3.28 ± 0.079 | 3.44 ± 0.06 | 3.21 ± 0.04 |
| TMLENITLRGVENIERV [RPO21] | 3.23 ± 0.12 | 2.86 ± 0.1 | 2.82 ± 0.12 | 2.69 ± 0.058 |
